The results in this text go back to US20120100134A1, “GENETIC VARIANTS IN ANGIOGENESIS PATHWAY ASSOCIATED WITH CLINICAL OUTCOME” (University of Southern California, priority 2009, published 2012).

This data set concerns advanced NSCLC patients. Briefly: Toxicity: grade3-4 hypertension versus genotype, E4599 subset. Format: in vivo, human. The following applies: bevacizumab arm. The text has this: The problem, however, is that there is hardly any power to do this. There were a total of 30 cases on E4599 who reported grade3-4 hypertension of any attribution type on this study. Once these cases are merged with the correlatives dataset, there is an overlap of only 7 hypertension cases in the correlative study. The distribution of hypertension versus genotype for these VEGF polymorphisms, as well as the WNK1 polymorphisms is as follows: […]

Turning to Bevacizumab, the “HTN (number of patients, grade3-4 hypertension)” value reads like this: (VEGF634 CC) 1; (VEGF634 GC) 0; (VEGF634 GG) 6; (VEGF1498 CT) 1; (WNK1-2158501 GG (so in the source)) 1; (WNK1-110644560 GG) 0. The “HTN (number of patients, grade3-4 hypertension)” value runs as follows: (WNK1-110644560 GT) 1; (WNK1-110644560 TT) 6. Moreover, the “No HTN (number of patients)” value runs as follows: (VEGF634 CC) 10; (VEGF1498 CC) 18; (VEGF1498 CT) 21; (VEGF1498 TT) 17; (WNK1-2158501 TT (so in the source)) 18; (WNK1-110644560 GG) 7. Besides, the “No HTN (number of patients)” value (WNK1-110644560 TT) was found to be 18.
